Results reported in PMC6284149, “Biochemical, Metabolomic, and Genetic Analyses of Dephospho Coenzyme A Kinase Involved in Coenzyme A Biosynthesis in the Human Enteric Parasite Entamoeba histolytica” (Frontiers in Microbiology, 2018).

Key:
EhDPCK1 = molecular target: T1, EhDPCK1 (Entamoeba histolytica, UniProt C4MB67); experiment: inhibition of DPCK activity; assay type: biochemical
T1 construct: gene EHI_040840; expressed in E. coli BL21(DE3), Ni-NTA purified
T1 sequence (C4MB67 1-206): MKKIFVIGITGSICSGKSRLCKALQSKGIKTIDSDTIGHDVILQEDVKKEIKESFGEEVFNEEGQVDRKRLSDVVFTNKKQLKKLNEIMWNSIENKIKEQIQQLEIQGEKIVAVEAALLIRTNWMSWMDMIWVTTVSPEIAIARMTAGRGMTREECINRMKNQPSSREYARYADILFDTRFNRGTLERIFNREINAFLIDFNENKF

EhDPCK2 = molecular target: T2, EhDPCK2 (Entamoeba histolytica, UniProt C4LWC7); experiment: inhibition of DPCK activity; assay type: biochemical
T2 construct: gene EHI_155780; expressed in E. coli BL21(DE3), Ni-NTA purified
T2 sequence (C4LWC7 1-204): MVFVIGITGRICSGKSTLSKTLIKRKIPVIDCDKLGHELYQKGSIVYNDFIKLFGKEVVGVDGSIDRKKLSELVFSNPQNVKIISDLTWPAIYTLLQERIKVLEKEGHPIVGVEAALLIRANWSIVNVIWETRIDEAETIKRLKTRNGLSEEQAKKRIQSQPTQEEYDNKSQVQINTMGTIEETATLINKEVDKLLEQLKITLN

[1] = substrate: CC(C)(COP(=O)(O)OP(=O)(O)OC[C@H]1O[C@@H](n2cnc3c(N)ncnc32)[C@H](O)[C@@H]1O)[C@@H](O)C(=O)NCCC(=O)NCCS; experiment: ADP Hunter Plus coupled fluorescence assay, initial rates, non-linear regression; assay type: biochemical, Entamoeba histolytica; settings: 100 μM ATP; 4-128 μM dephospho-CoA; 15 mM Hepes, 20 mM NaCl, 1 mM EGTA, 10 mM MgCl2
Excerpt: (§1) ADP Hunter Plus coupled fluorescence assay, initial rates, non-linear regression on EhDPCK1

[2] = substrate: Nc1ncnc2c1ncn2[C@@H]1O[C@H](COP(=O)(O)OP(=O)(O)OP(=O)(O)O)[C@@H](O)[C@H]1O; experiment: as above; assay type: biochemical, Entamoeba histolytica; settings: 128 μM dephospho-CoA; 1-100 μM ATP; 15 mM Hepes, 20 mM NaCl, 1 mM EGTA, 10 mM MgCl2
Excerpt: as §1

[3] = substrate: CC(C)(COP(=O)(O)OP(=O)(O)OC[C@H]1O[C@@H](n2cnc3c(N)ncnc32)[C@H](O)[C@@H]1O)[C@@H](O)C(=O)NCCC(=O)NCCS; experiment: as above; assay type: biochemical, Entamoeba histolytica; settings: 100 μM ATP; 4-128 μM dephospho-CoA; 15 mM Hepes, 20 mM NaCl, 1 mM EGTA, 10 mM MgCl2; remark: listed apart in the source
Excerpt: (§2) ADP Hunter Plus coupled fluorescence assay, initial rates, non-linear regression on EhDPCK2

[4] = substrate: Nc1ncnc2c1ncn2[C@@H]1O[C@H](COP(=O)(O)OP(=O)(O)OP(=O)(O)O)[C@@H](O)[C@H]1O; experiment: as above; assay type: biochemical, Entamoeba histolytica; settings: 128 μM dephospho-CoA; 1-100 μM ATP; 15 mM Hepes, 20 mM NaCl, 1 mM EGTA, 10 mM MgCl2; remark: listed apart in the source
Excerpt: as §2

[5] = feedback inhibition at relatively high concentrations
[6] = product feedback inhibition at relatively high concentrations

In the case of `CC(C)(COP(=O)(O)OP(=O)(O)OC[C@H]1O[C@@H](n2cnc3c(N)ncnc32)[C@H](O)[C@@H]1OP(=O)(O)O)[C@@H](O)C(=O)NCCC(=O)NCCSC(=O)CC(=O)O` [malonyl-CoA], the inhibition (EhDPCK1; [5]) is reported as “Both EhDPCK1 and EhDPCK2 showed similar profiles of inhibition by CoA, acetyl-CoA, and malonyl-CoA” and the inhibition (EhDPCK2; [5]) is reported as “Both EhDPCK1 and EhDPCK2 showed similar profiles of inhibition by CoA, acetyl-CoA, and malonyl-CoA”.

In the case of `CC(=O)SCCNC(=O)CCNC(=O)[C@H](O)C(C)(C)COP(=O)(O)OP(=O)(O)OC[C@H]1O[C@@H](n2cnc3c(N)ncnc32)[C@H](O)[C@@H]1OP(=O)(O)O` [acetyl-CoA], the inhibition (EhDPCK1; [5]) is reported as “Both EhDPCK1 and EhDPCK2 showed similar profiles of inhibition by CoA, acetyl-CoA, and malonyl-CoA” and the inhibition (EhDPCK2; [5]) is reported as “Both EhDPCK1 and EhDPCK2 showed similar profiles of inhibition by CoA, acetyl-CoA, and malonyl-CoA”.

For `CC(C)(COP(=O)(O)OP(=O)(O)OC[C@H]1O[C@@H](n2cnc3c(N)ncnc32)[C@H](O)[C@@H]1OP(=O)(O)O)[C@@H](O)C(=O)NCCC(=O)NCCS` [CoA], the inhibition (EhDPCK1; [6]) was “Both EhDPCK1 and EhDPCK2 showed similar profiles of inhibition by CoA, acetyl-CoA, and malonyl-CoA” and the inhibition (EhDPCK2; [6]) was “Both EhDPCK1 and EhDPCK2 showed similar profiles of inhibition by CoA, acetyl-CoA, and malonyl-CoA”.

B1: EhDPCK1 (Entamoeba histolytica HM-1:IMSS) (protein)
chain: MKKIFVIGITGSICSGKSRLCKALQSKGIKTIDSDTIGHDVILQEDVKKEIKESFGEEVFNEEGQVDRKRLSDVVFTNKKQLKKLNEIMWNSIENKIKEQIQQLEIQGEKIVAVEAALLIRTNWMSWMDMIWVTTVSPEIAIARMTAGRGMTREECINRMKNQPSSREYARYADILFDTRFNRGTLERIFNREINAFLIDFNENKF
notes: expressed in E. coli BL21(DE3), Ni-NTA purified
Molecule B1 has a Km [1] of 114 ± 19 µM, a Vmax [1] of 3.71 µmol/min/mg and a kcat [1] of 1.48 ± 0.172 s⁻¹. It also gave a kcat/Km [1] of 13000 ± 667 M⁻¹ s⁻¹, a Km [2] of 19.6 ± 1.2 µM and a Vmax [2] of 3.54 µmol/min/mg. It also gave a kcat [2] of 1.41 ± 0.04 s⁻¹ and a kcat/Km [2] of 72000 ± 3830 M⁻¹ s⁻¹.

B2: EhDPCK2 (Entamoeba histolytica HM-1:IMSS) (protein)
chain: MVFVIGITGRICSGKSTLSKTLIKRKIPVIDCDKLGHELYQKGSIVYNDFIKLFGKEVVGVDGSIDRKKLSELVFSNPQNVKIISDLTWPAIYTLLQERIKVLEKEGHPIVGVEAALLIRANWSIVNVIWETRIDEAETIKRLKTRNGLSEEQAKKRIQSQPTQEEYDNKSQVQINTMGTIEETATLINKEVDKLLEQLKITLN
notes: as for B1
Work on B2 yielded a Km [3] of 57.9 ± 6.07 µM, a Vmax [3] of 2.48 µmol/min/mg and a kcat [3] of 0.958 ± 0.0583 s⁻¹. The kcat/Km [3] was 16500 ± 1170 M⁻¹ s⁻¹, the Km [4] was 15.0 ± 2.4 µM and the Vmax [4] was 2.71 µmol/min/mg. It also gave a kcat [4] of 1.05 ± 0.0617 s⁻¹ and a kcat/Km [4] of 70800 ± 12300 M⁻¹ s⁻¹.
